Experimental data taken from the DeepSol protein solubility set.

Assay: soluble on expression in E. coli; label from the status in PepcDB or PDB records

Sequence | soluble on expression in E. coli
MAGDPMKIYFEAYGCTLNQGETALYVNKLLNEGNTLVSNPKEADLSIIGTCAVIKKTEDHMMARIQNLSRFGKVEVIGCLAPVKGKTMVEDNVSVIEKDRFRSFQEVIDEVSPVNAEIVSGIPINQGCTGKCNFCVSHIARGKLVSRKPEKIAGQIKILLQRGIKEIKITSLDTAAYGKDIGLRLPHLIRTITEIGDDFRLRVGMMEPKNTLEIVDDLISAYRSEKVFKFLHLPVQSGDDYVLEVMNREYTVSDFIRITGKFREAFPDSTLSTDLIIGYYAENDDSFEKTVQLIEKIRPEIINVTKFSPRELTADFEKRPKPTNILKEQDRMIADMHKEILQEKFSNLIGKTEFVLITENGKGRSMIGRDHAYRPIVIMDKTRKFEFHQVEITGFENTSLIGRIIDLEHHHHHH | not soluble
MGSDKIHHHHHHMNKANTVDTSTEAVERVAKEISGLASREAVSMIQGWEDAFELYLKAADQLSALAAERDTLANQVEDCARECAKLAEEIQRLQAQLAETRASLYALEKGVWRDGYPDKISGSEWFIALLEDNRRVVLRSLPEEHSYDYTTADDTYLAAWKIKRWMQFPDANFIAPDTIVHTTVERIEQIKEEARNAALEEAAEVVARIKKPTIPPMFMGQTRAEAYDMGQHNACESKAELIRTLKSEPAPHPDCPECSGSGMRDSGGVQPWGDHIDAPCDCENAPAPRQSVQKAADNLAKGLRSAGYFIPSSIIFDVMVQKKSAS | not soluble
MGSDKIHHHHHHMRVLPFLLPLIPVLLATTITDLPELVVVTVATENTDGLKRLLESAKAFDINIEVLGLGEKWNGGDTRIEQGGGQKIRILSDWIEKYKDASDTMIMFVDAYDVVFNADSTTILRKFFEHYSEKRLLFGAEPFCWPDQSLAPEYPIVEFGKRFLNSGLFMGYGPEMHKILKLKSVEDKDDDQLYYTMIYLDEKLRKELNMDLDSMSKIFQNLNGVIEDVELQFKEDGTPEAYNAAYNTKPLIVHGNGPSKSHLNYLGNYLGNRWNSQLGCRTCGLEVKESEEVPLIALNLFISKPIPFIEEVLQKIAEFDYPKEKIALYIYNNQPFSIKNIQDFLQKHGKSYYTKRVINGVTEIGDREARNEAIEWNKARNVEFAFLMDGDAYFSEPKVIKDLIQYSKTYDVGIIAPMIGQPGKLFTNFWGAIAANGYYARSEDYMAIVKGNRVGYWNVPFITSAVLFNKEKLEAMKDAYSYNKNLDPDMSMCKFARDNGHFLYIDNEKYYGFLIVSDEYAETVTEGKWHPEMWQIFENRELWEARYIHPGYHKIMEPEHVVDQACPDVYDFPLMSERFCEELIEEMEGFGRWSDGSNNDKRLAGGYENVPTRDIHMNQVGFERQWLYFMDTYVRPVQEKTFIGYYHQPVESNMMFVVRYKPEEQPSLRPHHDASTFSIDIALNKKGRDYEGGGVRYIRYNCTVPADEVGYAMMFPGRLTHLHEGLATTKGTRYIMVSFINP | not soluble
MATVTKAPKKQIQFADDMQEFTKFPTKTGRRSLSRSISQSSTDSYSSAASYTDSSDDEVSPREKQQTNSKGSSNFCVKNIKQAEFGRREIEIAEQDMSALISLRKRAQGEKPLAGAKIVGCTHITAQTAVLIETLCALGAQCRWSACNIYSTQNEVAAALAEAGVAVFAWKGESEDDFWWCIDRCVNMDGWQANMILDDGGDLTHWVYKKYPNVFKKIRGIVEESVTGVHRLYQLSKAGKLCVPAMNVNDSVTKQKFDNLYCCRESILDGLKRTTDVMFGGKQVVVCGYGEVGKGCCAALKALGAIVYITEIDPICALQACMDGFRVVKLNEVIRQVDVVITCTGNKNVVTREHLDRMKNSCIVCNMGHSNTEIDVTSLRTPELTWERVRSQVDHVIWPDGKRVVLLAEGRLLNLSCSTVPTFVLSITATTQALALIELYNAPEGRYKQDVYLLPKKMDEYVASLHLPSFDAHLTELTDDQAKYLGLNKNGPFKPNYYRY | not soluble
MSLDVLSVSEINAQIKALLEATFLQVRVQGEVSNLTIHKVSGHAYFSLKDSQSVIKCVLFKGNANRLKFALKEGQEVVVFGGISVYVPRGDYQINCFEIEPKDIGSLTLALEQLKEKLRLKGYFDEENKLPKPHFPKRVAVITSQNSAAWADMKKIASKRWPMCELVCINTLMQGEGCVQSVVESIVYADSFHDTKNAFDAIVVARGGGSMEDLYSFNDEKIADALYLAKTFSMSAIGHESDFLLSDLVADLRASTPSNAMEILLPSSDEWLQRLDGFNVKLHRSFKTLLHQKKAHLEHLVASLKRLSFENKHHLNALKLEKLKIALENKTLEFLRFKKTLLEKISTQTLTSPFLQTKTERLNRLENALKLAHANLKLPQFGALVSKNNQAIELEALKRGDKIELSNEKTRASAEILSVDRVEGHHHHHH | soluble
VDFHGYARSGIGWTGSGGEQQCFQTTGAQSKYRLGNECETYAELKLGQEVWKEGDKSFYFDTNVAYSVAQQNDWEATDPAFREANVQGKNLIEWLPGSTIWAGKRFYQRHDVHMIDFYYWDISGPGAGLENIDVGFGKLSLAATRSSEAGGSSSFASNNIYDYTNETANDVFDVRLAQMEINPGGTLELGVDYGRANLRDNYRLVDGASKDGWLFTAEHTQSVLKGFNKFVVQYATDSMTSQGKGLSQGSGVAFDNEKFAYNINNNGHMLRILDHGAISMGDNWDMMYVGMYQDINWDNDNGTKWWTVGIRPMYKWTPIMSTVMEIGYDNVESQRTGDKNNQYKITLAQQWQAGDSIWSRPAIRVFATYAKWDEKWGYDYTGNADNNANFGKAVPADFNGGSFGRGDSDEWTFGAQMEIWW | soluble
MDPVIKLVAHAQEMSMTIPRRQACMVYGKLNVTLKKGDVQEERDKRVTDGYVHIPEDMPQGRFDFGFTREDADVNIGTGQSTYELALDTAARRITGQVLFEQDIIAPGFGDWRPLIDFSCGDLVGVRIWGKELVLPVTSITRETTGWRAHVGGQLINDRRKIISENRKILADIESERRER | not soluble
MGSDKIHHHHHHMSKIGLTTTVPVEVIYAAGDTPVDLNNIFISDTREAMLRIEEAELAGYPRNVCGWIKGLYATALKSPEIKKIVAVTQGDCSNTHALMETWSEEGIEIIPFAFPYDRDGDMLRLQLEKLITALGTTWDQVREQKVRLDQVRQLAWEIDRLTWQENQVRGFENHLHLVSCSDFNGDPEGFARDLEGFIAEAREREPLNLQFKGRKKRELRLGFMGVPPIMPDLYNFLEEHGARVVFNEVQRQFSMPFATEDIVEQYQLYTYPYNVFGRIEDVAQEAERRQLDGLIHYTQSFCYRQIEDLIVRRRLDYPILNLEGENPTGLDARSKMRLESFLQMLRD | not soluble
MAASLRLLGAASGLRYWSRRLRPAAGSFAAVCSRSVASKTPVGFIGLGNMGNPMAKNLMKHGYPLIIYDVFPDACKEFQDAGEQVVSSPADVAEKADRIITMLPTSINAIEAYSGANGILKKVKKGSLLIDSSTIDPAVSKELAKEVEKMGAVFMDAPVSGGVGAARSGNLTFMVGGVEDEFAAAQELLGCMGSNVVYCGAVGTGQAAKICNNMLLAISMIGTAEAMNLGIRLGLDPKLLAKILNMSSGRCWSSDTYNPVPGVMDGVPSANNYQGGFGTTLMAKDLGLAQDSATSTKSPILLGSLAHQIYRMMCAKGYSKKDFSSVFQFLREEETF | soluble
MGSSHHHHHHSSGLVPRGSHMRIAIVVPYLAKVEGNKIALILASKLAKNNEVFVVSYAVKDSIIDEVNSLISPAKFFYQKAISNGRYGIRFAIKYQLLKGVDRKMANLLKALMPLDIYLVISNEGHWIPIYFDKAYGTKSALVVMELHDHGFISAGNDPLRFPILRTVLASPAYGLAKVIEYKRFKSFDILFANSKWTQIVFQYLYGLPVSGILFGIDTEVFKPTPSKFSEMNFIAVPTISLKKDYYGRRLISKLAKDGIPLLSYGPIKIEGVKHLGYLSQDEMVKILSAAKATLFLFNYEALGLIPFESLACGTPVITYPKQGPLVELSDNPNVIYFREYEELLKNCRLHLNSAKDEMTINKCRESVLKYDISKVSVDVEQLFQTIIFNKNKS | soluble
MEEVTIKANLIFANGSTQTAEFQGTFEQATSEAYAYADTLKQDNGEWTVDVADQGYTLNIQFAG | soluble
MGSDKIHHHHHHVCSELAKDVPTNMSIKMPSLTPSSLSSLIPSSVPSEVQNVQGKDCMKEAIGADKIARQFSQAAKHYQEHDKVQRLSAQRLRTKMTPIGRLLDIGCGPGTDFSAAPGLNEVLGLDIAPGMLSQMLESFPSYKALCGDAQALPLSDASIDTLYSNLALQWCSDIKTAIGELARVLKPGSQCHLAIVVDGSLSELDALGLRVNAFEQAQTLLDGFSDSHWQIEHHSVEPLRVHFDDLKTLLYSIKGVGASAAMGSDVSQGSDVTQDSDASHGPDDTQGSVSKPPPRLRGRQDWLALCERAEKMRQPEGLPLTYQILFIHASRRG | not soluble
MFRQLSELYISTLKEAKERSPPNFDDTPRGLLLALIKDRPTIWNSSARLTKDDVLASFQQCSAILSNMDPGYSIWAVIEKWCWVVESYVRCSVTAPPSEWRYNNTLDYLKQFATTSYPYLGCLSKKRRNELTKLYNDPEINVVMQKTEEIEFPVGIFRDEMLYLSGEDHLMQYDLELRTVGQVVNAKRRGRPSKVDKRSPVDNFYNLTPQSAQFQKLLESNMSSAFSIAFAESELIPDDLGFSPAMYMALIDMIQDKPELWQSNHPQKDNLQAQEQLFEDFGKQLIIKFRDTADISVLEKLTGPYVHLVWERLLEKFKEEDSLETVSKWKYYQVGSAGLSARLAIASPSGSSQSEDSRMAASSPSTAFIGMPTTINGNKSIQTVLDNLIAARSKKEDHAASTTSVLQAPNYSELKQMLEKNNILKVDNENGPPLKRVKQEIESPPGSSRMIVYNDTRKTTNAPISTWVPPREDLTAKVKDETVQSVPQRKAQATAVIKSGFPLEKHLKKQAVPSMIPVTSSSIPQRNGILGLNSMILPPSAIQQALLKKMDVPTTTPSMSSTSSSQAQSSMNGVINGNNTEVEDKWTLLGRMIAMMAREIETRDPMSACELTRDLQQVIFQYNMKTLRPKENNSSSSSQ | not soluble
MGSDKIHHHHHHMECLLKTTSSVRFGSIHHPCECPANEACPFSIMSLFKRKAASSLETLALAKVGETVRKRLSADPGVYRIPLDDLEIFGVADFFSAEECAKLMAIVDSVARPSPTYSGTDASGRTSYTGDVDPFDPFVLMLQRRIDDLMGIDPSFGETIQGQRYAPGQEFRGHYDHFLPSQPFWDAEQKRGGQRSWTAMAYLNAVEEGGQTEFARVNLSIPPQPGALLIWNNMKPDGTPNANAMHAGMPVVRGTKYVLTKWYRSRPWH | not soluble
MQKYTIVDLNEKAEAELAAIAGELGIANAGSMPKQELIYKILDEQAISVAGVRKEKQKTTEDRHTERRKPGRPRKNAEEEAPESEDVAAAPAEPNDEEAQAKRKRGRPRKAAEEIAEETREDVQQLVALAAAEETNATEKESAGRKPAAKTSTASPAKAPAKALPRPAETTPRVAPSPPPTTPVSEPAKDDAKPETPAPPPAIESITTTPAAGAVDEGGARRLVFRHKNSSSVLDQVLPYSSPQPPQRPKPAGAPVGSSPIRQRQAAGVPTPRREPQQPLYNFDGILECM | not soluble
VSIDSSRRIIQAIEQNEFHLYCQKIIPAGSNQESSSYYEVLIRMAEEESNLIPPGAFLPFVEKYNLMPRLDSWVVEQVIHYLADQRADPRISFCINLARSTLIDPVFYDRVWKLLNAAGIEPQRICFEIETADVAANLLSAVQFVKKVQQSGCLVSLCSFNHDRGSFDLLKHIQADFLKIDGSLICNILRDAEDLKKVENIGKFARALKIRTIGELVETRNILEKLAKIGIDYAQGFIVGRPLPIEKIEYRADSMDDL | not soluble
